Results taken from patent US20220033438A1 (GENOIMMUNE THERAPEUTICS, published 2022).

Assays:
HLA-A0201 on T2 cells [1] = molecular target: T1, HLA-A0201 on T2 cells (human); experiment: T2 cell affinity test, 100 uM peptide, flow cytometry; FI=(MFI sample-MFI background)/MFI background
T1 construct: MHC class I molecule on TAP-deficient T2 cells; also called HLA-A0201 antigen
Protocol: (§1) 2 duplicate wells per group were used. […] The cells were collected by centrifugation at 200 g for 5 minutes. […] The mean fluorescence intensity (MFI) was then detected and analyzed by flow cytometry (BD FACSJazz™) and its software, as shown in FIG. 1.

HLA-A0201 on T2 cells [2] = molecular target: T1, HLA-A0201 on T2 cells; experiment: T2 cell affinity test, 100 uM peptide overnight with human b2m, anti-HLA-A0201 FITC staining, flow cytometry
Protocol: as §1

FI (fluorescence index) (HLA-A0201 on T2 cells [1])	MFI (HLA-A0201 on T2 cells [2])	Binder
1.89	648	KLMGIVNKV [wild-type polypeptide KLMGIVNKV (SEQ ID NO: 6)]
2.09	692	KMMGIVYKL (Synthetic 9-mer; also called mutated polypeptide) [KMMGIVYKL polypeptide (SEQ ID NO: 5)]
2.23	724	KLMGIVYKL (Synthetic 9-mer; also called mutated polypeptide) [KLMGIVYKL polypeptide (SEQ ID NO: 4)]
1.97	666	KLMGIVYKV (Synthetic 9-mer made by solid phase synthesis; It is the fragment of the mutated (N136Y) Twist neighbor protein; also called mutated polypeptide) [KLMGIVYKV polypeptide (SEQ ID NO: 2)]
